# Reference: patent publication US20190055314A1 (ADAGENE, published 2019)
# Where two headings read alike, the source gives them in different places.
# Tests used:
# [1] = biological target: T1, human CD137-His6 (Sino Biological #10041-H08H) (human, UniProt Q07011 24-186); assay: SPR Biacore, IgG
# T1 construct: Bought; also called human CD137 protein; not shown: His6 tag
# [2] = biological target: T2, CD137-hisFc fusion protein (Sino Biological Cat 10041-H03H) (human, UniProt Q07011 24-186); assay: BLI Octet, Fab
# T2 construct: Bought; also called recombinant human CD137 (fused with human Fc and His tag); not shown: His tag and human Fc
# [3] = biological target: T2, CD137-hisFc fusion protein (Sino …); assay: BLI Octet, Fab; remark: listed apart in the source
Binder,Kd [1],koff [1],kon [1],Kd [2],koff [2],kon [2],Kd [3],koff [3],kon [3]
"AG10054 (antibody, human IgG4 S228P, kappa, V domains shown, also called IgG of Fab 4072) VH: EVQLVESGGGLVQPGGSLRLSCAASGFSLSTSGVAVSWIRQAPGKGLEWIGIINPNFGDTNYAQKFQGRVTISRDNSKNTLYLQLNSLRAEDTAVYYCARDEYYGGSYYFDYWGQGTLVTVSS VL: DIQLTQSPSSLSASVGDRVTITCRASQDVRTAVAWYQQKPGKAPKLLIYDASNLETGVPSRFSGSGSGTDFTLTISSLQPEDFATYYCQQSYDWPPTFGQGTKVEIKR",0.013 µM,0.0019 s⁻¹,140000 M⁻¹ s⁻¹,–,–,–,–,–,–
"Fab 5353 (Fab, V domains shown, Fab from E. coli; also called VH26/VL26) VH: EVQLVESGGGLVQPGGSLRLSCAASGFTFSSYWIHWVRQAPGKGLEWVSVISGDGDTTYYADSVKGRFTISRDNSKNTLYLQLNSLRAEDTAVYYCARSRGLVLDAFDYWGQGTLVTVSS VL: DIQLTQSPSSLSASVGDRVTITCRASQSVSGRFLAWYQQKPGKAPKLLIYDASSLESGVPSRFSGSGSGTDFTLTISSLQPEDFATYYCQQYDYWPPYTFGQGTKVEIKR",–,–,–,0.0161 µM,0.00597 s⁻¹,370000 M⁻¹ s⁻¹,0.016 µM,0.006 s⁻¹,370000 M⁻¹ s⁻¹
"Fab 5299 (Fab, V domains shown, Fab from E. coli; also called VH11/VL11) VH: EVQLVESGGGLVQPGGSLRLSCAASGYSISSGHYWGWIRQAPGKGLEWLALIDWYGDKYYSTSLKSRLTISRDNSKNTLYLQLNSLRAEDTAVYYCARSDYYGSHFDYWGQGTLVTVSS VL: DIQLTQSPSSLSASVGDRVTITCRASESVDFDGFSFLAWYQQKPGKAPKLLIYDASNLETGVPSRFSGSGSGTDFTLTISSLQPEDFATYYCQQYDTLPRTFGQGTKVEIKR",–,–,–,0.0137 µM,0.0076 s⁻¹,555000 M⁻¹ s⁻¹,0.014 µM,0.0076 s⁻¹,560000 M⁻¹ s⁻¹
"AG10086 (antibody, human IgG4 S228P, kappa, V domains shown, also called IgG of Fab 5409) VH: EVQLVESGGGLVQPGGSLRLSCAASGYSISSGHHWAWIRQAPGKGLEWVSVISGSGSSTYYADSVKGRFTISRDNSKNTLYLQLNSLRAEDTAVYYCAREGSDTVLGDWFAYWGQGTLVTVSS VL: DIQLTQSPSSLSASVGDRVTITCRASQGISSYLAWYQQKPGKAPKLLIYDASNLETGVPSRFSGSGSGTDFTLTISSLQPEDFATYYCQQGYSTWTFGQGTKVEIKR",0.046 µM,0.0045 s⁻¹,100000 M⁻¹ s⁻¹,–,–,–,–,–,–
"Fab 5300 (Fab, V domains shown, Fab from E. coli; also called VH12/VL12) VH: EVQLVESGGGLVQPGGSLRLSCAASGYTFSNYWIHWVRQAPGKGLEWVSYISGDGDTTYYADSVKGRFTISRDNSKNTLYLQLNSLRAEDTAVYYCAREGSTTVAGDWFAYWGQGTLVTVSS VL: DIQLTQSPSSLSASVGDRVTITCRASQGIGSFLGWYQQKPGKAPKLLIYDASSLESGVPSRFSGSGSGTDFTLTISSLQPEDFATYYCQQYYSLVTFGQGTKVEIKR",–,–,–,0.0153 µM,0.0091 s⁻¹,596000 M⁻¹ s⁻¹,0.015 µM,0.0091 s⁻¹,600000 M⁻¹ s⁻¹
"Fab 5323 (Fab, V domains shown, Fab from E. coli; also called VH19/VL19) VH: EVQLVESGGGLVQPGGSLRLSCAASGFSLSTSGVGVGWIRQAPGKGLEWIGEIYHSGSTYYSPSLKSRVTISRDNSKNTLYLQLNSLKAEDTAVYYCAREGSDVVTGDWFAYWGQGTLVTVSS VL: DIQLTQSPSSLSASVGDRVTITCRASQGISSVLAWYQQKPGKAPKLLIYDASSLESGVPSRFSGSGSGTDFTLTISSLQPEDFATYYCQQGYSLWTFGQGTKVEIKR",–,–,–,0.0104 µM,0.00812 s⁻¹,782000 M⁻¹ s⁻¹,0.01 µM,0.0081 s⁻¹,780000 M⁻¹ s⁻¹
"Fab 5367 (Fab, V domains shown, Fab from E. coli; also called VH31/VL31) VH: EVQLVESGGGLVQPGGSLRLSCAASGFSLSTSGVGVGWIRQAPGKGLEWVSGISGAGDSTYYADSVKGRFTISRDNSKNTLYLQLNSLRAEDTAVYYCAREGSDTVLGDWFAYWGQGTLVTVSS VL: DIQLTQSPSSLSASVGDRVTITCRASQDIRSYLAWYQQKPGKAPKLLIYDASNRATGIPSRFSGSGSGTDFTLTISSLQPEDFATYYCQQGYSIWTFGQGTKVEIKR",–,–,–,0.0149 µM,0.00608 s⁻¹,407000 M⁻¹ s⁻¹,0.015 µM,0.0061 s⁻¹,410000 M⁻¹ s⁻¹
"AG10060 (antibody, human IgG4 S228P, kappa, V domains shown, also called IgG of Fab 5359) VH: EVQLVESGGGLVQPGGSLRLSCAASGFSLSTSGVGVGWIRQAPGKGLEWLALIDWADDKYYSPSLKSRLTISRDNSKNTLYLQLNSLRAEDTAVYYCARGGSDAVLGDWFAYWGQGTLVTVSS VL: DIQLTQSPSSLSASVGDRVTITCRASQGIGSYLAWYQQKPGKAPKLLIYDASNLETGVPSRFSGSGSGTDFTLTISSLQPEDFATYYCQQGYSIWTFGQGTKVEIKR",0.0011 µM,0.00025 s⁻¹,220000 M⁻¹ s⁻¹,–,–,–,–,–,–
"Fab 5316 (Fab, V domains shown, Fab from E. coli; also called VH17/VL17) VH: EVQLVESGGGLVQPGGSLRLSCAASGYSISSGYHWAWIRQAPGKGLEWVSSISGDGSSTYYADSVKGRFTISRDNSKNTLYLQLNSLRAEDTAVYYCAREGSDAVTGDWFAYWGQGTLVTVSS VL: DIQLTQSPSSLSASVGDRVTITCRASQGVGTYLAWYQQKPGKAPKLLIYDASSLESGVPSRFSGSGSGTDFTLTISSLQPEDFATYYCQQGYSLWTFGQGTKVEIKR",–,–,–,0.0114 µM,0.00161 s⁻¹,141000 M⁻¹ s⁻¹,0.011 µM,0.0016 s⁻¹,140000 M⁻¹ s⁻¹
"AG10063 (antibody, human IgG4 S228P, kappa, V domains shown, also called IgG of Fab 5413) VH: EVQLVESGGGLVQPGGSLRLSCAASGFSLSTGGVAVGWIRQAPGKGLEWLALIDWDGDKSYSTSLKSRLTISRDNSKNTLYLQLNSLRAEDTAVYYCAREGSTAVVGDWFDYWGQGTLVTVSS VL: DIQLTQSPSSLSASVGDRVTITCRASQGISRYLAWYQQKPGKAPKLLIYDASNRATGIPSRFSGSGSGTDFTLTISSLQPEDFATYYCQQGYSLWTFGQGTKVEIKR",0.00099 µM,0.00039 s⁻¹,390000 M⁻¹ s⁻¹,–,–,–,–,–,–
"AG10132 (antibody, human IgG4 S228P, kappa, V domains shown, also called IgG of Fab 5408) VH: EVQLVESGGGLVQPGGSLRLSCAASGYSITSGYHWSWIRQAPGKGLEWVSSISGYGDTTYYADSVKGRFTISRDNSKNTLYLQLNSLRAEDTAVYYCAREGSDTVLGDWFAYWGQGTLVTVSS VL: DIQLTQSPSSLSASVGDRVTITCQASQDIRTYLAWYQQKPGKAPKLLIYDASNLETGVPSRFSGSGSGTDFTLTISSLQPEDFATYYCQQGYSIWTFGQGTKVEIKR",0.069 µM,0.014 s⁻¹,200000 M⁻¹ s⁻¹,–,–,–,–,–,–
"AG10128 (antibody, human IgG4 S228P, kappa, V domains shown, also called IgG of Fab 5342) VH: EVQLVESGGGLVQPGGSLRLSCAASGFSLSTGGVAVGWIRQAPGKGLEWLALIDWAGDKSYSTSLKSRLTISRDNSKNTLYLQLNSLRAEDTAVYYCAREGEDAVTGDWFAYWGQGTLVTVSS VL: DIQLTQSPSSLSASVGDRVTITCQASQDIRTYLAWYQQKPGKAPKLLIYDASNRATGIPSRFSGSGSGTDFTLTISSLQPEDFATYYCQQGYSIWTFGQGTKVEIKR",0.003 µM,0.00037 s⁻¹,120000 M⁻¹ s⁻¹,–,–,–,–,–,–
"AG10127 (antibody, human IgG4 S228P, kappa, V domains shown, also called IgG of Fab 5318) VH: EVQLVESGGGLVQPGGSLRLSCAASGFSLSTSGVAVGWIRQAPGKGLEWLALIDWDDDKYYSTSLKSRLTISRDNSKNTLYLQLNSLRAEDTAVYYCAREGSTAVAGDWFAYWGQGTLVTVSS VL: DIQLTQSPSSLSASVGDRVTITCQASQDIRTFLAWYQQKPGKAPKLLIYDASNRATGIPSRFSGSGSGTDFTLTISSLQPEDFATYYCQQGYSTWTFGQGTKVEIKR",0.0096 µM,0.0029 s⁻¹,300000 M⁻¹ s⁻¹,–,–,–,–,–,–
"AG10061 (antibody, human IgG4 S228P, kappa, V domains shown) VH: EVQLVESGGGLVQPGGSLRLSCAASGFSLSTSGVAVAWIRQAPGKGLEWLALIDWDDDKRYSTSLKSRLTISRDNSKNTLYLQLNSLRAEDTAVYYCAREGSTTVVGDWFDYWGQGTLVTVSS VL: DIQLTQSPSSLSASVGDRVTITCRASQGIGTYLAWYQQKPGKAPKLLIYDASNRATGIPSRFSGSGSGTDFTLTISSLQPEDFATYYCQQGYSLWTFGQGTKVEIKR",0.0036 µM,0.00078 s⁻¹,220000 M⁻¹ s⁻¹,–,–,–,–,–,–
"AG10084 (antibody, human IgG4 S228P, kappa, V domains shown) VH: EVQLVESGGGLVQPGGSLRLSCAASGYSITSGHYWNWIRQAPGKGLEWVSGISGDGSSTYYADSVKGRFTISRDNSKNTLYLQLNSLRAEDTAVYYCARGGSDAVLGDWFAYWGQGTLVTVSS VL: DIQLTQSPSSLSASVGDRVTITCRASQSISSYLAWYQQKPGKAPKLLIYDASNLETGVPSRFSGSGSGTDFTLTISSLQPEDFATYYCQQGYSTWTFGQGTKVEIKR",0.043 µM,0.0028 s⁻¹,66000 M⁻¹ s⁻¹,–,–,–,–,–,–
"AG10125 (antibody, human IgG4 S228P, kappa, V domains shown, also called IgG of Fab 5314) VH: EVQLVESGGGLVQPGGSLRLSCAASGFSLSTGGVAVGWIRQAPGKGLEWLALIDWAGDKSYSTSLKSRLTISRDNSKNTLYLQLNSLRAEDTAVYYCARGGSDTVLGDWFAYWGQGTLVTVSS VL: DIQLTQSPSSLSASVGDRVTITCRASQGVSPYLAWYQQKPGKAPKLLIYDASNRATGIPSRFSGSGSGTDFTLTISSLQPEDFATYYCQQGYSTWTFGQGTKVEIKR",0.015 µM,0.0017 s⁻¹,110000 M⁻¹ s⁻¹,–,–,–,–,–,–
"AG10126 (antibody, human IgG4 S228P, kappa, V domains shown, also called IgG of Fab 5316) VH: EVQLVESGGGLVQPGGSLRLSCAASGYSISSGYHWAWIRQAPGKGLEWVSSISGDGSSTYYADSVKGRFTISRDNSKNTLYLQLNSLRAEDTAVYYCAREGSDAVTGDWFAYWGQGTLVTVSS VL: DIQLTQSPSSLSASVGDRVTITCRASQGVGTYLAWYQQKPGKAPKLLIYDASSLESGVPSRFSGSGSGTDFTLTISSLQPEDFATYYCQQGYSLWTFGQGTKVEIKR",0.014 µM,–,–,–,–,–,–,–,–
"AG10057 (antibody, human IgG4 S228P, kappa, V domains shown, also called IgG of Fab 5303) VH: EVQLVESGGGLVQPGGSLRLSCAASGFSLSTSGVAVGWIRQAPGKGLEWLALIDWADDKYYSPSLKSRLTISRDNSKNTLYLQLNSLRAEDTAVYYCAREGSDAVLGDWFAYWGQGTLVTVSS VL: DIQLTQSPSSLSASVGDRVTITCRASQDISTFLAWYQQKPGKAPKLLIYDASSLESGVPSRFSGSGSGTDFTLTISSLQPEDFATYYCQQAYSIWTFGQGTKVEIKR",0.0079 µM,0.0061 s⁻¹,770000 M⁻¹ s⁻¹,–,–,–,–,–,–
